The values that follow come from US8597922B2, “Methods and compositions for producing olefins” (LS9, Inc., priority 2007, dated 2013).

In one data set the test system is E. coli. Briefly: Heterologous expression of 8456_orf880 in E. coli with fatty acid feeding. The class given is cell-based. The procedure: ATCC 8456 cells were grown in 15 mL TSBYE medium (3% Tryptic Soy Broth+0.5% Yeast Extract). Fatty acids were added to the culture medium at final concentrations of 0.5 g/l (0.05%). After growth for 40-48 h at 30° C., cells from 5 mL of culture were pelleted, resuspended in 1 mL methanol, sonicated for 30 min, and extracted with 4 mL hexane. After solvent evaporation, samples were resuspended in 0.1 mL hexane and analyzed by GC-MS.
Jeotgalicoccus ATCC 8456 ORF880 was identified as one of the two major proteins in a highly purified enzyme fraction that catalyzed the conversion of free fatty acids to α-olefins. The genomic DNA encoding ATCC 8456_orf880 was cloned into pCDF-Duet1 under the control of the T7 promoter, and E. coli was transformed with various vectors, as described below. The E. coli cells were grown, and the hydrocarbons produced by the cells were analyzed as described in Example 2. When 0.05% stearic acid was fed to cultures of E. coli transformed with the 8456_orf880-containing vector, the expression of 8456_orf880 led to the formation of 1-heptadecene in E. coli (see FIG. 8, depicting GC/MS traces of α-olefins from E. coli either without (black) or with (gray) expression of 8456_orf880). […] Additionally, when E. coli cells expressing 8456_orf880 protein were fed with 0.05% palmitic acid or 0.05% eicosanoic acid, the production of 1-pentadecene or 1-nonadecene, respectively, was observed.

Data set [1] is described as follows: Specific activity of α-olefin and α/β-hydroxy fatty acid formation by purified enzymes. The note with it: 500 μM H2O2, 200 μM potassium hexadecanoate. It is filed as biochemical. The procedure:
The specific activity of α-olefin formation as well as α-(2) and β-(3)hydroxy fatty acid formation were determined for ORF880, CYP152A1, and CYP152A1 Q85H (see Examples 12 and 16). An E. coli BL21 strain (DE3) (Invitrogen) was transformed with either pET15b-orf 880, pET15b-cyp152A1, and pET15b-cyp152A1 Q85H using routine chemical transformation techniques. Protein expression was carried out by first inoculating a colony of the E. coli strain in 5 mL of LB media supplemented with 100 mg/L of carbenicillin and shaken overnight at 37° C. to produce a starter culture. This starter culture was used to inoculate 0.5 L of LB media supplemented with 100 mg/L of carbenicillin. The culture was shaken at 37° C. until an OD600 value of 0.6 was reached. The culture was placed on ice for 10 min before IPTG was added to a final concentration of 250 μM. The culture was shaken at 25° C. for approximately 18 h, and then centrifuged at 3,700 rpm for 20 min at 4° C. The pellet was then resuspended in 10 mL of buffer containing 100 mM sodium phosphate buffer at pH 7.2 supplemented with Bacterial ProteaseArrest (GBiosciences). The cells were then sonicated at 12 W on ice for 9 sec with 1.5 sec of sonication followed by 1.5 sec of rest. This procedure was repeated 5 times with one min intervals between each sonication cycle. The cell free extract was centrifuged at 10,000 rpm for 30 min at 4° C. 5 mL of Ni-NTA (Qiagen) was added to the supernatant, and the mixture was gently stirred at 4° C. The slurry was passed over a column removing the resin from the lysate. The resin was then washed with 30 mL of buffer containing 100 mM sodium phosphate buffer at pH 7.2 plus 30 mM imidazole. Finally, the protein was eluted with 15 mL of 100 mM sodium phosphate buffer at pH 7.2 plus 250 mM imidazole. The protein solution was dialyzed with 200 volumes of 100 mM sodium phosphate buffer at pH 7.2 with 20% glycerol. Protein concentration was determined using the Bradford assay (Biorad). 578 μg/mL of ORF880, 865 μg/mL of CYP152A1, and 653 μg/mL of CYP152A1 Q85H protein was obtained.
To determine the specific activity with potassium hexadecanoate, the following reactions were set-up where each time point consisted of 500 μL. Each reaction contained of 500 μM H2O2, 200 μM of potassium hexadecanoate, 100 mM sodium phosphate buffer at pH 7.2, and protein at the following concentrations: ORF880-0.23 or 0.46 μM; CYP152A1-8.65, 17.3, or 34.6 μM; CYP152A1 Q85H-6.53, 13.06, or 26.12 μM. The reactions were carried out at room temperature and time points were taken at 0, 1, 3, 5, 7, 10, 14, and 20 minutes. Reactions were quenched with 50 μL of 12 M HCl and then extracted with 200 μL of ethyl acetate. 50 μL of this extract was then reacted with 50 μL N,O-Bis(trimethylsilyl)trifluoroacetamide with trimethyl-chlorosilane (Aldrich). Samples were analyzed using GC/MS using the following parameters: run time: 20 min; column: HP-5-MS Part No. 190915-433E (length of 30 meters; I.D.: 0.25 mm narrowbore; film: 0.25 μM); inject: 1 μL Agilent 6850 inlet; inlet: 300° C. splitless; carrier gas: helium; flow: 1.3 mL/min; oven temp: 100° C. hold 5 min, 320° C. at 20° C./min, 320° C. hold 5 min; det: Agilent 5975B VL MSD; det. temp: 300° C.; scan: 50-500 M/Z. Calibration curves were generated using 1-pentadecene, α(2)-hydroxyhexadecanoic acid, and β(3)-hydroxyhexadecanoic acid dissolved in ethyl acetate and derivatized as described herein.
Based upon this analysis, product formation was determined to be linear within the first three minutes. The specific activities for each enzyme concentration in the linear range were averaged for a given reaction (e.g., decarboxylation, α-hydroxylation, or β-hydroxylation). FIG. 21 summarizes the results. The specific activity for 1-pentadecene formation was similar for ORF880 and CYP152A1. Mutating the glutamine 85 residue to a histidine increased the specific activity of 1-pentadecene formation (i.e., increased fatty acid decarboxylase activity). […]

B1: ORF880: olefin-producing enzyme (fatty acid decarboxylase) from Jeotgalicoccus sp. ATCC 8456, SEQ ID NO:2 (protein)
chain: MATLKRDKGLDNTLKVLKQGYLYTTNQRNRLNTSVFQTKALGGKPFVVVTGKEGAEMFYNNDVVQREGMLPKRIVNTLFGKGAIHTVDGKKHVDRKALFMSLMTEGNLNYVRELTRTLWHANTQRMESMDEVNIYRESIVLLTKVGTRWAGVQAPPEDIERIATDMDIMIDSFRALGGAFKGYKASKEARRRVEDWLEEQIIETRKGNIHPPEGTALYEFAHWEDYLGNPMDSRTCAIDLMNTFRPLIAINRFVSFGLHAMNENPITREKIKSEPDYAYKFAQEVRRYYPFVPFLPGKAKVDIDFQGVTIPAGVGLALDVYGTTHDESLWDDPNEFRPERFETWDGSPFDLIPQGGGDYWTNHRCAGEWITVIIMEETMKYFAEKITYDVPEQDLEVDLNSIPGYVKSGFVIKNVREVVDRT
modifications: Jeotgalicoccus sp. ATCC8456
For the molecule B1, the α-olefin produced in the data set with E. coli (0.05% eicosanoic acid fed) is listed as 1-nonadecene; in the data set with E. coli (0.05% palmitic acid fed), 1-pentadecene; with E. coli (0.05% stearic acid fed) it was 1-heptadecene. Further, in data set [1], the “rate of hydroxyhexadecanoic acid production relative to the rates of the two CYP152A1 enzymes” value is “about 1/50”. Besides, the “specific activity for 1-pentadecene formation” value in data set [1] (pH 7.2, room temperature, comparison between enzymes) is listed as “similar”.
